{
  "source": "paper PMC10694151",
  "about": "“Regulation of the cell division hydrolase RipC by the FtsEX system in Mycobacterium tuberculosis” (Nature Communications, 2023)",
  "molecules": {"B1": {"name": "FtsX (Rv3101c) of Mycobacterium tuberculosis (natural protein)", "chain": "MRFGFLLNEVLTGFRRNVTMTIAMILTTAISVGLFGGGMLVVRLADSSRAIYLDRVESQVFLTEDVSANDSSCDTTACKALREKIETRSDVKAVRFLNRQQAYDDAIRKFPQFKDVAGKDSFPASFIVKLENPEQHKDFDTAMKGQPGVLDVLNQKELIDRLFAVLDGLSNAAFAVALVQAIGAILLIANMVQVAAYTRRTEIGIMRLVGASRWYTQLPFLVEAMLAATMGVGIAVAGLMVVRALFLENALNQFYQANLIAKVDYADILFITPWLLLLGVAMSGLTAYLTLRLYVRR", "notes": "also called MtbFtsX"}, "B2": {"name": "FtsE (Rv3102c) of Mycobacterium tuberculosis (natural protein)", "chain": "MMITLDHVTKQYKSSARPALDDINVKIDKGEFVFLIGPSGSGKSTFMRLLLAAETPTSGDVRVSKFHVNKLRGRHVPKLRQVIGCVFQDFRLLQQKTVYDNVAFALEVIGKRTDAINRVVPEVLETVGLSGKANRLPDELSGGEQQRVAIARAFVNRPLVLLADEPTGNLDPETSRDIMDLLERINRTGTTVLMATHDHHIVDSMRQRVVELSLGRLVRDEQRGVYGMDR", "notes": "also called MtbFtsE; NBD"}},
  "key": {"MtbFtsEX/RipC": {"target": "T1, MtbFtsEX/RipC (Mycobacterium tuberculosis, UniProt O05779)", "T1 construct": "gene ftsE", "T1 sequence (P9WHU3 34-385, one chain of several, further chain)": "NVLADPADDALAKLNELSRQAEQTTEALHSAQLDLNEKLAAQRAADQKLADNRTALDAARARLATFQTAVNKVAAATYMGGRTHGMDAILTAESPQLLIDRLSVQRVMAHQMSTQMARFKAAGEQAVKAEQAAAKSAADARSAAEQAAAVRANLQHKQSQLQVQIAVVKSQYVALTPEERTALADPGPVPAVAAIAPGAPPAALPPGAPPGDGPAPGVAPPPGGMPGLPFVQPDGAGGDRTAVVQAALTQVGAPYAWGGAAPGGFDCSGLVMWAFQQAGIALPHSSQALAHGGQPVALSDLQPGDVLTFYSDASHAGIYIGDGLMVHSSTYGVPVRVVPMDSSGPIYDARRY"}, "[1]": {"target": "the molecule itself", "test": "cryo-EM structure; FtsEX or FtsEX-RipC in peptidiscs, 3 mg/ml, ATP-free"}, "[2]": {"target": "B1", "test": "cryo-EM structure; FtsEX or FtsEX-RipC in peptidiscs, 3 mg/ml, ATP-free", "conditions": "both partners purified"}},
  "data": [
    {"molecule": "Nc1ncnc2c1ncn2[C@@H]1O[C@H](COP(=O)(O)OP(=O)(O)O)[C@@H](O)[C@H]1O", "note": "[ADP]", "values": [
      {"measurement": "cryo-EM structure, 5.7 Å, polyalanine model", "setting": "MtbFtsEX/RipC", "value": "with EM density compatible with an ADP molecule"}
    ]},
    {"molecule": "B1", "values": [
      {"measurement": "stoichiometry N", "setting": "[1]", "value": 2}
    ]},
    {"molecule": "B2", "values": [
      {"measurement": "binding result", "setting": "[2]", "value": "binds"}
    ]}
  ]
}
